Laboratory results: patent US20190054150A1 (AEQUUS BIOPHARMA, published 2019)
Square brackets hold non-standard residues; d marks the D form. Ends that are not written are not given here. Nle = CCCC[C@H](N)C(=O)O

Key:
Experiment in all cases: cell-based or functional assay
[1] = molecular target: MCR1 (human, UniProt Q01726 1-317)
[2] = molecular target: MCR3 (human, UniProt P41968 1-323)
[3] = molecular target: MCR4 (human, UniProt P32245 1-332)
[4] = molecular target: MCR5 (human, UniProt P33032 1-325)
Chain of MCR5 (P33032 whole entry): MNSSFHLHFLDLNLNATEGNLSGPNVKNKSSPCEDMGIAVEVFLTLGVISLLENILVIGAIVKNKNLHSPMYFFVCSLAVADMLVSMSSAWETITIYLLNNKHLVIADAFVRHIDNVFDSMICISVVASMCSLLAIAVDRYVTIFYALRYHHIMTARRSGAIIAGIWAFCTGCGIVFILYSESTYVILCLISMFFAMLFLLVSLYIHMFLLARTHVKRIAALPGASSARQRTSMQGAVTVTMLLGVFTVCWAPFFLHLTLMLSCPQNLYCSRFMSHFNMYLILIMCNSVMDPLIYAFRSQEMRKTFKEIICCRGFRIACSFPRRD

Chain of MCR3 (P41968 whole entry): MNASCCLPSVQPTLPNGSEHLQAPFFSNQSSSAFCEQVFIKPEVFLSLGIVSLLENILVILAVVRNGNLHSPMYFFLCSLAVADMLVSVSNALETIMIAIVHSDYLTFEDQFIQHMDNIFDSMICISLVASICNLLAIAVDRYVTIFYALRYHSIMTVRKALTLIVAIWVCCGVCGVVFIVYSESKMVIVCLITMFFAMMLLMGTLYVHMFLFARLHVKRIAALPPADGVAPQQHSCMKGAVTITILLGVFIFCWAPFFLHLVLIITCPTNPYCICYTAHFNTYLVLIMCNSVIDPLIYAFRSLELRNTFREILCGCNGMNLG
Chain of MCR1 (Q01726 whole entry): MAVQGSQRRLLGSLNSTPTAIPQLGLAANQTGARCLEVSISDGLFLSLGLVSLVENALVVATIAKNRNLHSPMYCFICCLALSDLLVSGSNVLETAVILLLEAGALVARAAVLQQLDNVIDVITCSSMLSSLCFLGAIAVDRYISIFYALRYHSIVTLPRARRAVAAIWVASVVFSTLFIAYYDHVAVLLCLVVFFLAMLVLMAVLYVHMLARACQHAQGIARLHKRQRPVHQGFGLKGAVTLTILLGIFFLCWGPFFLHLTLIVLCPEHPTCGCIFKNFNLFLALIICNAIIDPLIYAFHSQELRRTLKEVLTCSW
Chain of MCR4 (P32245 whole entry): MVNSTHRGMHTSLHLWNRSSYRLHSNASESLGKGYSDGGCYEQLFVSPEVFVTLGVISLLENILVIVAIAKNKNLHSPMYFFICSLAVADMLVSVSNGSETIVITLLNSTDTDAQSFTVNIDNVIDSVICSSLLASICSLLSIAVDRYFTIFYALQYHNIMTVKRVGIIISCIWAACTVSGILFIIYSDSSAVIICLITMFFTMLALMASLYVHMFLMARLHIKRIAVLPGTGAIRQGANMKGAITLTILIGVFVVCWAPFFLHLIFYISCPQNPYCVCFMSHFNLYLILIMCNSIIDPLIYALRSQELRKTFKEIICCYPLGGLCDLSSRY

Row | Binder | MCR1 EC50 (nM); cAMP production, LANCE cAMP assay, CHO-MCR1 cells, cell pool B [1] [nM] | MCR3 EC50 (nM); cAMP production, LANCE cAMP assay, CHO-MCR3 cells, cell pool B [2] [nM] | MCR4 EC50 (nM); cAMP production, LANCE cAMP assay, CHO-MCR4 cells, cell pool B [3] [nM] | also measured
1 | ACTH1-24-natural C-terminal spacer-α-MSH (peptide) peptide: SYSMEHFRWGKPVGKKRRPVKVYPELTGQRLREGDGPDGPADDGAGASYSMEHFRWGKPV | 1.02 | 22 | > 20 | 
2 | YVMGHFRWDRFGRRNSSSSGSSGAGQSYSMEHFRWGKPVGKKRRPVKVYP [γ-MSH-ACTH1-24 linker without cleavable site] |  |  |  | MCR1 EC50 (nM); cAMP production, LANCE cAMP assay, CHO-MCR1 cells, cell pool A [1]: 11 nM; MCR3 EC50 (nM); cAMP production, LANCE cAMP assay, CHO-MCR3 cells, cell pool A [2]: 16 nM
3 | SYSMEHFRWGKPVGKKRRPVKVYPGGGGSRRKRSYS[Nle]EH[dF]RWGKPV [ACTH1-24-proconvertase-NDP-α-MSH] | 0.44 | 0.51 | 1.6 | 
4 | ACTH1-24-natural N-terminal spacer-NDP-α-MSH (ends and bridges not checked) peptide: SYSMEHFRWGKPVGKKRRPVKVYPPLPEGGPEPRSDGAKPGPREGKRSYS[Nle]EH[dF]RWGKPV | 0.63 | 0.62 | 1.6 | 
5 | XEHXRWSYSMEHFRWGKPVGKKRRPVKVYP (Nle at position 1 and dPhe at position 4 as printed: Nle-EH-dPhe-RWSYSMEHFRWGKPVGKKRRPVKVYP) [NDP-ACTH4-9-ACTH1-24] | 0.17 | 6.8 | 0.8 | 
6 | YVMGHFRWDRFGKRSYSMEHFRWGKPVGKKRRPVKVYP [γ-MSH-ACTH1-24] |  |  |  | MCR1 EC50 (nM); cAMP production, LANCE cAMP assay, CHO-MCR1 cells, cell pool A [1]: 22 nM; MCR3 EC50 (nM); cAMP production, LANCE cAMP assay, CHO-MCR3 cells, cell pool A [2]: 38 nM
7 | YVMGHFRWDRFGRRNSSSSGSSGAGQKR [γ-MSH with linker] | 19 | 11 | > 100 | 
8 | ACTH1-24-linker-MMP site-linker-NDP-α-MSH (ends and bridges not checked) peptide: SYSMEHFRWGKPVGKKRRPVKVYPGGGGSPLGLWAGGGGSSYS[Nle]EH[dF]RWGKPV | 1.6 | 4.7 | 5.8 | 
9 | SYSMEHFRWGKPVGKKRRAVKVYP [ACTH1-24-point-5] |  |  |  | MCR1 EC50 (nM); cAMP production, LANCE cAMP assay, CHO-MCR1 cells, cell pool C [1]: 0.31 nM; MCR3 EC50 (nM); cAMP production, LANCE cAMP assay, CHO-MCR3 cells, cell pool C [2]: 10 nM; MCR4 EC50 (nM); cAMP production, LANCE cAMP assay, CHO-MCR4 cells, cell pool C [3]: 60 nM; MCR5 EC50 (nM); cAMP production, LANCE cAMP assay, CHO-MCR5 cells, cell pool C [4]: > 100 nM
10 | SYSMEHFRWGKPVGKKRRAVKVYPSYS[Nle]EH[dF]RWGKPV [ACTH1-24-point-5-NDP-α-MSH] |  |  |  | MCR1 EC50 (nM); cAMP production, LANCE cAMP assay, CHO-MCR1 cells, cell pool C [1]: 0.44 nM; MCR3 EC50 (nM); cAMP production, LANCE cAMP assay, CHO-MCR3 cells, cell pool C [2]: 1.5 nM; MCR4 EC50 (nM); cAMP production, LANCE cAMP assay, CHO-MCR4 cells, cell pool C [3]: 3.4 nM; MCR5 EC50 (nM); cAMP production, LANCE cAMP assay, CHO-MCR5 cells, cell pool C [4]: 28 nM
11 | ACTH1-24-linker-Furin site-linker-NDP-α-MSH (ends and bridges not checked) peptide: SYSMEHFRWGKPVGKKRRPVKVYPGGGGSRRKRGGGGSSYS[Nle]EH[dF]RWGKPV | 0.202 | 0.453 | 1.9 | 
12 | XEHXRWAGASYSMEHFRWGKPVGKKRRPVKVYP (Nle, dPhe and β-Ala residues as printed: Nle-EH-dPhe-RW-β-Ala-G-β-Ala-SYSMEHFRWGKPVGKKRRPVKVYP) [NDP-ACTH4-9-βAla-G-βAla-ACTH1-24] | 0.16 | 5.5 | 2.4 | 
13 | SYSMEHFRWGKPVGKKRRPVKVYPSYS[Nle]EH[dF]RWGKPV (ends and bridges not checked) [ACTH1-24-NDP-α-MSH] |  |  |  | MCR1 EC50 (nM); cAMP production, LANCE cAMP assay, CHO-MCR1 cells, cell pool C [1]: 0.28 nM; MCR3 EC50 (nM); cAMP production, LANCE cAMP assay, CHO-MCR3 cells, cell pool C [2]: 1.5 nM; MCR4 EC50 (nM); cAMP production, LANCE cAMP assay, CHO-MCR4 cells, cell pool C [3]: 2.3 nM; MCR5 EC50 (nM); cAMP production, LANCE cAMP assay, CHO-MCR5 cells, cell pool C [4]: 24 nM
